In the supplement of paper PMC7125110:
± gives the standard error. Variants at the floor of the assay were thinned out.

B1: glmS ribozyme (parent)
chain: AUAAAAGCGCCAGAACUACAGAAAUGUAGUUGACGAGGAGGAGGUUUAUCGAAUUUUCGGCGGAUGCCUCCAAA

Experiments:
Details in all cases: with glucosamine-6-phosphate
glucosamine-6-phosphate [1] = variants of: B1; test: self-cleavage kobs at 160 uM GlcN6P; higher = faster cleavage; RNA array
In short: (§1)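 Over ~14 h at 37 °C, tiles were imaged as glucosamine-6-phosphate (40 μM to 10 mM) in HEPES/KCl/Mg(OAc)2 buffer flowed across sequenced MiSeq chips. The chips carried barcoded ribozyme variants transcribed in situ by E. coli RNA polymerase and tracked with a hybridised Cy3 probe. After normalisation to baseline and to non-cleaving reference variants, one- or two-exponential decay fits of per-tile medians gave kobs. kcat and KM followed from weighted Michaelis–Menten fits across concentrations.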

glucosamine-6-phosphate [2] = variants of: B1; test: self-cleavage kobs at 640 uM GlcN6P; higher = faster cleavage; RNA array
In short: as §1

glucosamine-6-phosphate [3] = variants of: B1; test: self-cleavage kobs at 2500 uM GlcN6P; higher = faster cleavage; RNA array
In short: as §1

glucosamine-6-phosphate [4] = variants of: B1; test: self-cleavage kobs at 10000 uM GlcN6P; higher = faster cleavage; RNA array
In short: as §1

Variant	self-cleavage kobs at 160 uM GlcN6P (glucosamine-6-phosphate [1])	self-cleavage kobs at 640 uM GlcN6P (glucosamine-6-phosphate [2])	self-cleavage kobs at 2500 uM GlcN6P (glucosamine-6-phosphate [3])	self-cleavage kobs at 10000 uM GlcN6P (glucosamine-6-phosphate [4])
AUAAAAGCGCCAGAACUACAGAAAUGUAAUUGACGAGGACGAGGUUUAUCGAAUAGUCGGCGGAUGUCUCCAAA [G29A G40C U55A U56G C67U]	< 1e-05 s⁻¹	< 1e-05 s⁻¹	< 1e-05 s⁻¹	
AUAAAAGCGUCAGAACUACAGAAAUGUAGUUGACGAGGAGGAGGUUUAGCGAAUUUUCGGCGGAUGCCUCCAAA [C10U U49G]	< 1e-05 s⁻¹	< 1e-05 s⁻¹		
AUAAAAGCGCGAGAACUACAGAAAUGUAGUGGACGAGGAGGAGAUUUAUCGAAUUUUCGGCGGACGCCUCCAAA [C11G U31G G44A U65C]	< 1e-05 s⁻¹	< 1e-05 s⁻¹	< 1e-05 s⁻¹	
AUAAAGGCGCCAGAACUACAGAAAUGUAGGUGAGGAGGAGGAGGUUUAUCGAAUUUUCGGCGGAUGCCUCCAAA [A6G U30G C34G]	< 1e-05 s⁻¹			
AUAAAGGCGCCAGAACUACAGAAAUGUAGUUGAGGAGGAGGAGGUUUAUCUAAUUUUCGGCGAAUGCCUCCAAA [A6G C34G G51U G63A]	< 1e-05 s⁻¹	< 1e-05 s⁻¹	< 1e-05 s⁻¹	
AUAAAAACGCCAGAACUACAGAAAUGUAGUUUAUGAGGAGGAGGUUUAUCGAAUUUUCGGCGGAUGCCUCCAAA [G7A G32U C34U]	< 1e-05 s⁻¹			
AUAAAAGCGUCAGAACUACAGAAAUGUAGUAGACGAGGAGGAGGUUUAGCGAAUUUUCGGCUGAUGCUUCCAAA [C10U U31A U49G G62U C68U]	< 1e-05 s⁻¹			
AUAAAAGCGCCAGAACUACAGAAAUGUAGUUGACGAGGAGGAGGUUUAGCUAAUUUUCGGCGGAUGCCUCCAAA [U49G G51U]	< 1e-05 s⁻¹	< 1e-05 s⁻¹	< 1e-05 s⁻¹	< 1e-05 s⁻¹
AUAAAAGCGCCAGAACUACAGAAAUGUAGUUGACGACGAGCAGGUUUAUCGAAUUUUCGGCGGAUGCCUCCAAA [G37C G41C]	< 1e-05 s⁻¹	< 1e-05 s⁻¹	< 1e-05 s⁻¹	
AUAAAAGCGCCAGUACUACAGAAAUGUAGCUGACGAGGAGGACGUUUAUCGAAUUUUCGGCGGAUCCCUCCAAA [A14U U30C G43C G66C]	< 1e-05 s⁻¹			
AUAAAAGCGCCAGAACUACAGAAAUGUAGUUGACGUGGAGGAGGUUAAUCGAAUUUUCGGCGGAUUCCUGUAAA [A36U U47A G66U C70G C71U]	4.68e-05 ± 2.2e-05 s⁻¹		0.00104 ± 0.00043 s⁻¹	
AUAAAAGAGCCAGAACUACAGAAAUGUAGUUGACCAGGAGGAGGUUUAUCGAAUUUUCGGCUGAUGCCUCCAAA [C8A G35C G62U]	< 1e-05 s⁻¹	< 1e-05 s⁻¹	< 1e-05 s⁻¹	
AUAAAAGCGCCAGAACUACAGAAAUGUAGUUGCGGAGGAGGAGGUUUAUCGAAUUUUCGGCGGAUGCCUCCAAA [A33C C34G]	< 1e-05 s⁻¹			
AUAAAAGCGCCAGAACUACAGAAAUGUAGUUGACGAGGAGGAGGUUUAUCGAAUUUUCGGUGGAUGUCUCCAAA [C61U C67U]	< 1e-05 s⁻¹	< 1e-05 s⁻¹		
AUAAAAGCGCCAGAACUACAGAAAUGUAGUUGACGCGGAGGAGGUUUAUCGAAUUUUCGGCGGAUCCCUCCAAA [A36C G66C]	< 1e-05 s⁻¹	< 1e-05 s⁻¹		< 1e-05 s⁻¹
AUAAAAGCGCCUGAAUUACAGAAAUGUAGUUGACGAGGAGGAGGUUUAUCGAAAUUUCGGCGGAUGCCUCCAAA [A12U C16U U54A]	0.00397 ± 0.00072 s⁻¹	0.00766 ± 0.0025 s⁻¹		
AUAAAAGCGCCAGAUCUACAGAAAUGUAGUUGACGAGGAGGAUGUUUAUCGAAUUAUCGGCGGAUGCAUCCAAA [A15U G43U U56A C68A]	0.000115 ± 3.5e-05 s⁻¹		0.00532 ± 0.0014 s⁻¹	

Variant	self-cleavage kobs at 160 uM GlcN6P (glucosamine-6-phosphate [1])	self-cleavage kobs at 640 uM GlcN6P (glucosamine-6-phosphate [2])	self-cleavage kobs at 2500 uM GlcN6P (glucosamine-6-phosphate [3])	self-cleavage kobs at 10000 uM GlcN6P (glucosamine-6-phosphate [4])
AUAAAAGCGCCAGAACUACAGAAAUGUAGUUGACCAGGAGGAGGUUUAUCGAAUUUUCGGCGCAUGCCUCCAAA [G35C G63C]	< 1e-05 s⁻¹	< 1e-05 s⁻¹	< 1e-05 s⁻¹	
AUAAAAGCGCCAGAACUACAGAAAUGUAGUUGACGAGUAUGAGGUUUAUCGACUUUUCGGGGGGUGCAUCCAAA [G38U G40U A53C C61G A64G C68A]	< 1e-05 s⁻¹	< 1e-05 s⁻¹		
AUAAAAGCGCCAGAACUACAGAAAUGUAGUUGACGAGGAGGAGGUUUAUCCAAUUUUCGGCGGAGGCCUCCAAA [G51C U65G]	< 1e-05 s⁻¹	< 1e-05 s⁻¹	< 1e-05 s⁻¹	
AUAAAAGCGCCAGAAAUACAGAAAUGUAGUUGACUAUGAGGAGGUUUAUCGAAUUUUCGGCGGAGGCCUCCAAA [C16A G35U G37U U65G]	< 1e-05 s⁻¹	< 1e-05 s⁻¹		
AUAAAAGAGCCAGAACUACAGAAAUGUAGUUGACGAGGAGGAGGUUUAUCGAUUGUUCGGCGGAUGCCUCCAAA [C8A A53U U55G]	< 1e-05 s⁻¹	< 1e-05 s⁻¹		
AUAAAUGCGCCAGAACUACAGAAAUGUAGUUGACGAGGAGGAGUUUUAUCGAAUCUUCGGCGGAUGCCUCCAAA [A6U G44U U55C]	< 1e-05 s⁻¹	< 1e-05 s⁻¹	< 1e-05 s⁻¹	
AUAAAAGCGCCAGAACUACAGAAAUGUAGUUGACGAGGAGGCGGUUUAUCGCAUUUUCGGCGGAUGGCUCCAAA [A42C A52C C67G]	< 1e-05 s⁻¹			
AUAAAAGCGCCAGAACUACAGAAAUGUAGUCGACGAGGAGGAGGUUUAUCGAAUUUUCGGCGAAUGCCUCCAAA [U31C G63A]	< 1e-05 s⁻¹			< 1e-05 s⁻¹
AUAAAAGCGCCAGAACUACAGAAAUGUAGUUGACGACGAGGAGGUUUAUCGAAUUUUCGGCGGACGCCUCCAAA [G37C U65C]	< 1e-05 s⁻¹	< 1e-05 s⁻¹	< 1e-05 s⁻¹	
AUAAAAGCGCCAGAACUACAGAAAUGUAGUAGACGAGGAGGAGGUUUAUGGAAUUUUCGGCGGAUGCCUCCAAA [U31A C50G]	0.000119 ± 2.4e-05 s⁻¹	0.000349 ± 0.00014 s⁻¹	0.000577 ± 0.00022 s⁻¹	
AUAAAAGCGCCAGAACUACAGAAAUGUAGUUGACGAGGAGCAGGUUUAUCGAAUUUUCGGCGAAUGCCUCCAAA [G41C G63A]	< 1e-05 s⁻¹	< 1e-05 s⁻¹		
AUAAAAGCGCCCGAACUACAGAAAUGUAGUUGACGAGGAGGAGGUUUAUCGAAUUAUCGGCGGAUGACGCCAAA [A12C U56A C67A U69G]	8.14e-05 ± 2.1e-05 s⁻¹	0.00447 ± 0.0018 s⁻¹	0.000144 ± 4.7e-05 s⁻¹	
AUAAAAGCGCCAGAACUACAGAAAUGUACUUGACGAGGAGGACGUUUAUCGAAUUUUCGGCGGAUGCCUGCAAA [G29C G43C C70G]	< 1e-05 s⁻¹	< 1e-05 s⁻¹		
AUAAAAGCGACAGAACUACAGAAAUGUAGUUGACGAGGAGGAGGUUUAUCGAAGUUUCGGCGGAUGCCUCGAAA [C10A U54G C71G]	9.72e-05 ± 3.2e-05 s⁻¹	0.000112 ± 5.5e-05 s⁻¹		
AUAAAAGAGCCAGAACUACAGAAAUGUAGUUGACGAGGGGGAGGUUUAUCGUAUUUUCGGCGGAUGCCUCCAAA [C8A A39G A52U]	< 1e-05 s⁻¹	< 1e-05 s⁻¹	< 1e-05 s⁻¹	
AUAAAAGCCCGAGAACUACAGAAAUGUAGUUGACGAGGAGGAGGUUUAUCGAAUUUUCGGGGUAUGCCUCCAAA [G9C C11G C61G G63U]	< 1e-05 s⁻¹		< 1e-05 s⁻¹	
